The text below walks through data of article doi:10.1101/2025.08.25.672131, “A basic leucine zipper uses a dimer pathway to locate its targets in DNA mixtures”.

In one data set the target is T1, CREB-bZIP-ΔLZ (human, UniProt P16220-1 277-315, C300S;C310S).
T1 chain: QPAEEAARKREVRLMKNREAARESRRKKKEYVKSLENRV
Nature of the data set: fluorescence anisotropy; monomer; Stopped-flow at 25 C; assay buffer not stated in the material (protein storage: 10 mM MES pH 6.5 or, for the forced-monomer bZIP-ΔLZ prep, 10 mM HEPES pH 7.4, with 150 mM NaCl, 10 mM MgCl2; 0.05% Tween-20 in the MES buffer). The conditions noted are these: protein: recombinant; tags: N-terminal G left after TEV cleavage; label: 5' Alexa Fluor 488; blunt.

The next data set addresses T2, Jun bZIP-ΔLZ (human, UniProt P05412 246-284).
T2 chain: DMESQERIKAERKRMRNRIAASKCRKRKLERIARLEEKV
The description is as above. The conditions noted are these: protein: recombinant; tags: N-terminal G left after TEV cleavage; label: 5' Alexa Fluor 488; blunt.

B1: Alexa Fluor 488-Comp (dsDNA)
DNA 1: GGCTAAAGCATTCT
DNA 2: AGAATGCTTTAGCC
Regarding B1, in the data set with CREB-bZIP-ΔLZ, the Kd was determined as 440 ± 30 µM.

B2: Alexa Fluor 488 target for Jun, JunD, Fos (dsDNA)
DNA 1: GGATGAGTCATTGG
DNA 2: CCAATGACTCATCC
For B2, the Kd with Jun bZIP-ΔLZ was 0.22 ± 0.03 µM.

One may read the Kd as the equilibrium constant for the complex coming apart.
